# Reference: patent publication US20230173037A1, “Manipulating Glycogen in Alzheimer’s Disease, Epilepsy, Traumatic Brain Injury, and ALS as a Treatment” (University of Kentucky Research Foundation, priority 2020, published 2023)
# B1: human pancreatic α-amylase: enzyme component of VAL-0417, degrades glycogen (protein, UniProt P04746 16-511, looked up)
# Pancreatic alpha-amylase: QYSPNTQQGRTSIVHLFEWRWVDIALECERYLAPKGFGGVQVSPPNENVAIYNPFRPWWERYQPVSYKLCTRSGNEDEFRNMVTRCNNVGVRIYVDAVINHMCGNAVSAGTSSTCGSYFNPGSRDFPAVPYSGWDFNDGKCKTGSGDIENYNDATQVRDCRLTGLLDLALEKDYVRSKIAEYMNHLIDIGVAGFRLDASKHMWPGDIKAILDKLHNLNSNWFPAGSKPFIYQEVIDLGGEPIKSSDYFGNGRVTEFKYGAKLGTVIRKWNGEKMSYLKNWGEGWGFVPSDRALVFVDNHDNQRGHGAGGASILTFWDARLYKMAVGFMLAHPYGFTRVMSSYRWPRQFQNGNDVNDWVGPPNNNGVIKEVTINPDTTCGNDWVCEHRWRQIRNMVIFRNVVDGQPFTNWYDNGSNQVAFGRGNRGFIVFNNDDWSFSLTLQTGLPAGTYCDVISGDKINGNCTGIKIYVSDDGKAHFSISNSAEDPFIAIHAESKL
# Assay: Activity of enzymes to degrade glycogen under neutral pH
# Format: biochemical
# Conditions: neutral pH of the cellular environment
molecule,measurement,value
B1,activity to degrade glycogen,best activity
